US20170023548

T1: hATP11C-GFP (human ATP11C tagged with GFP at the C-terminus), Q8NB49
T1 chain: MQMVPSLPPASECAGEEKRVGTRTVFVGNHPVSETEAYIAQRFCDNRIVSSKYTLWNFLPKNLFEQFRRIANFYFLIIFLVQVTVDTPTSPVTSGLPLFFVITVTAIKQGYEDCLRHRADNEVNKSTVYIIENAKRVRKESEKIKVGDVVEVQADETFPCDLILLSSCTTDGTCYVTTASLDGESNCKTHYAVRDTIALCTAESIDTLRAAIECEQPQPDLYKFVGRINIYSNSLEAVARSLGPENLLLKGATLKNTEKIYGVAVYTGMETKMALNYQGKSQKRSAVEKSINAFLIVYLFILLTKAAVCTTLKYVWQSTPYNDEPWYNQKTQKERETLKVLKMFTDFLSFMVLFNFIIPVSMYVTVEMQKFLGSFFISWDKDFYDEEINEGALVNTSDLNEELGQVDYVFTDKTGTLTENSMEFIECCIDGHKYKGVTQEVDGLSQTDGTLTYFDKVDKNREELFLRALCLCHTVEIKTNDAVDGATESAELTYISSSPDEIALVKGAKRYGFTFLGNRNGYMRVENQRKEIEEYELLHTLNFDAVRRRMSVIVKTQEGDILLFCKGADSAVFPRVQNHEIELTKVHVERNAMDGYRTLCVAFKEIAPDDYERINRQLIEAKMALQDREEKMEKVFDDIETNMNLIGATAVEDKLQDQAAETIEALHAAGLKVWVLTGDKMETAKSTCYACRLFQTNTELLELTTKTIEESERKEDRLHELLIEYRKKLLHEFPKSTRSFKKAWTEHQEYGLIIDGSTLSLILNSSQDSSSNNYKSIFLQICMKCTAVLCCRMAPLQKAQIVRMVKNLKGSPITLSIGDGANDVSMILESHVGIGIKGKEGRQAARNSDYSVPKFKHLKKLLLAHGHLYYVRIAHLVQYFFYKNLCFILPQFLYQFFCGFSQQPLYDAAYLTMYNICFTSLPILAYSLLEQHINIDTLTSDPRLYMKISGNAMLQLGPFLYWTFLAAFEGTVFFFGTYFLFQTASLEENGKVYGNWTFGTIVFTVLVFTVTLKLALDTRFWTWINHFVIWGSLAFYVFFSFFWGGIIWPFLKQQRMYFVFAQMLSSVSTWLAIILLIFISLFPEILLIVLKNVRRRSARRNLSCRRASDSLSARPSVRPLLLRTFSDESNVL


Molecular target: T1, hATP11C-GFP (human ATP11C tagged with …)

| Protein | cleavage of hATP11C-GFP in solubilized membrane fraction, Western blotting with anti-GFP |
| --- | --- |
| recombinant human caspase-3 (Biovision) (protein) SGISLDNSYKMDYPEMGLCIIINNKNFHKSTGMTSRSGTDVDAANLRETFRNLKYEVRNKNDLTREEIVELMRDVSKEDHSKRSSFVCVLLSHGEEGIIFGTNGPVDLKKITNFFRGDRCRSLTGKPKLFIIQACRGTELDCGIETDSGVDDDMACHKIPVEADFLYAYSTAPGYYSWRNSKDGSWFIQSLCAMLKQYADKLEFMHILTRVNRKVATEFESFSFDATFHAKKQIPCIVSMLTKELYFYH | hATP11C was cleaved by caspase-3, -6 and -7 |
| recombinant human caspase-6 (Biovision) (protein) AFYKREMFDPAEKYKMDHRRRGIALIFNHERFFWHLTLPERRGTCADRDNLTRRFSDLGFEVKCFNDLKAEELLLKIHEVSTVSHADADCFVCVFLSHGEGNHIYAYDAKIEIQTLTGLFKGDKCHSLVGKPKIFIIQACRGNQHDVPVIPLDVVDNQTEKLDTNITEVDAASVYTLPAGADFLMCYSVAEGYYSHRETVNGSWYIQDLCEMLGKYGSSLEFTELLTLVNRKVSQRRVDFCKDPSAIGKKQVPCFASMLTKKLHFFPKSN | hATP11C was cleaved by caspase-3, -6 and -7 |
| recombinant human caspase-7 (Biovision) (protein) AKPDRSSFVPSLFSKKKKNVTMRSIKTTRDRVPTYQYNMNFEKLGKCIIINNKNFDKVTGMGVRNGTDKDAEALFKCFRSLGFDVIVYNDCSCAKMQDLLKKASEEDHTNAACFACILLSHGEENVIYGKDGVTPIKDLTAHFRGDRCKTLLEKPKLFFIQACRGTELDDGIQADSGPINDTDANPRYKIPVEADFLFAYSTVPGYYSWRSPGRGSWFVQALCSILEEHGKDLEIMQILTRVNDRVARHFESQSDDPHFHEKKQIPCVVSMLTKELYFSQ | hATP11C was cleaved by caspase-3, -6 and -7 |
